Measured values reported in US5393869A, “Parathyroid hormone derivatives” (Takeda Chemical Industries, Ltd., priority 1990, dated 1995).
No end group written: not given here.

How the values were obtained:
PTH receptor = molecular target: T1, PTH receptor (Mus musculus, UniProt P41593); experiment: cAMP production by PTH (1-34) analogues in MC3T3-EI osteoblast-like cells; assay type: cell-based; conditions: for Biological Activity (Represented by Relative Activity to hPTH(1-34)): cAMP production, 0.01-100 nM analogue, room temperature 30 minutes, hPTH(1-34) = 1.00
T1 construct: a mouse cranial bone-derived osteoblast-like cell strain, MC3T3-EI cells, cultivated on a 96-well multiplate; endogenous in cells; host or cells: MC3T3-E1 mouse osteoblast-like cells
T1 sequence (P41593 27-591): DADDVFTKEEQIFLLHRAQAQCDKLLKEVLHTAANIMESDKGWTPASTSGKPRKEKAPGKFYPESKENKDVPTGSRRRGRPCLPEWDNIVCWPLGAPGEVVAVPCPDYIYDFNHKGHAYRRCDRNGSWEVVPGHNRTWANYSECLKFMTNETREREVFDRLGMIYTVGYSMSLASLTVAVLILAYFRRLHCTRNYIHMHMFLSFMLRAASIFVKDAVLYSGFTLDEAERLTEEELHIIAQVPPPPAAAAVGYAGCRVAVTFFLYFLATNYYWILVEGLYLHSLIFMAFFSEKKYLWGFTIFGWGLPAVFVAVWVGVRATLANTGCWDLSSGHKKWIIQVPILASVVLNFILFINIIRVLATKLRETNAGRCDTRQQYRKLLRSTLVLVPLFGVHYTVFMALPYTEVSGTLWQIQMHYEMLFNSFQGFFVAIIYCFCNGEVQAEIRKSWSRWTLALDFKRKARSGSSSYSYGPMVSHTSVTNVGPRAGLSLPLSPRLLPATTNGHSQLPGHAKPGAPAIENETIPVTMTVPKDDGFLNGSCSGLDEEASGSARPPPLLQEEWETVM
Description: The biological activity of the peptide analogues was evaluated by a modified version of the method reported by Shigeno et al. in The Journal of Biological Chemistry 263, 18369-18377 (1988). A culture solution (Hank's solution, containing 20 mM N-2-hydroxyethylpiperazine-N'-2-ethanesulfonic acid (HEPES), 0.1% bovine serum albumin and 0.5 mM isobutylmethyl-xanthine) containing 0.01, 0.1, 1, 10 or 100 nM analogue was added in an amount of 100 μto a mouse cranial bone-derived osteoblast-like cell strain, MC3T3-EI cells, cultivated on a 96-well multiplate (Nunclon, Nunc), followed by reaction at room temperature for 30 minutes. After addition of 100 μof 0.2N hydrochloric acid, the mixture was immersed in boiling water for 2.5 minutes, and cyclic adenosine monophosphate (cAMP) produced by a PTH receptor was extracted from the cells. The total cAMP in the culture solution and the cells was assayed using a commercial radioimmunoassay kit (cyclic AMP [^125 I] kit "Du Pont-Daiichi", Daiichi Kagaku Yakuhin).

[1] = molecular target: PTH receptor on MC3T3-EI cells (mouse cranial bone-derived osteoblast-like cell strain) (mouse) (UniProt P41593)

Molecule | cAMP production in MC3T3-EI cells, relative activity to hPTH(1-34) (relative activity to hPTH(1-34)) [1] | also measured
CC[C@H](C)[C@H](NC(=O)[C@H](CCC(=O)O)NC(=O)[C@H](CO)NC(=O)[C@@H](NC(=O)[C@@H](N)CO)C(C)C)C(=O)N[C@@H](CCC(N)=O)C(=O)N[C@@H](CC(C)C)C(=O)N[C@@H](CCSC)C(=O)N[C@@H](Cc1c[nH]cn1)C(=O)N[C@@H](CC(N)=O)C(=O)N[C@@H](Cc1ccccc1)C(=O)NCC(=O)N[C@@H](CCCCN)C(=O)N[C@@H](Cc1c[nH]cn1)C(=O)N[C@@H](CC(C)C)C(=O)N[C@@H](CC(N)=O)C(=O)N[C@@H](CO)C(=O)N[C@@H](CCSC)C(=O)N[C@@H](CCC(=O)O)C(=O)N[C@@H](CCCNC(=N)N)C(=O)N[C@H](C(=O)N[C@@H](CCC(=O)O)C(=O)N[C@@H](Cc1c[nH]c2ccccc12)C(=O)N[C@@H](CC(C)C)C(=O)N[C@@H](CCCNC(=N)N)C(=O)N[C@@H](CCCCN)C(=O)N[C@@H](CCCCN)C(=O)N[C@@H](CC(C)C)C(=O)N[C@@H](CCC(N)=O)C(=O)N[C@@H](CC(=O)O)C(=O)N[C@H](C(=O)N[C@@H](Cc1c[nH]cn1)C(=O)N[C@@H](CC(N)=O)C(=O)N[C@@H](Cc1ccccc1)C(N)=O)C(C)C)C(C)C [[Phe^11] hPTH (1-34)NH2, (Phe^11)hPTH(1-34)NH2] | – | Biological Activity (Represented by Relative Activity to hPTH(1-34)) (PTH receptor): 1.3
CC[C@H](C)[C@H](NC(=O)[C@H](CCC(=O)O)NC(=O)[C@H](CO)NC(=O)[C@@H](NC(=O)[C@@H](N)CO)C(C)C)C(=O)N[C@@H](CCC(N)=O)C(=O)N[C@@H](CC(C)C)C(=O)N[C@@H](CCSC)C(=O)N[C@@H](Cc1c[nH]cn1)C(=O)N[C@@H](CC(N)=O)C(=O)N[C@@H](CO)C(=O)NCC(=O)N[C@@H](CCCCN)C(=O)N[C@@H](Cc1c[nH]cn1)C(=O)N[C@@H](CC(C)C)C(=O)N[C@@H](CC(N)=O)C(=O)N[C@@H](CO)C(=O)N[C@@H](CCSC)C(=O)N[C@@H](CCC(=O)O)C(=O)N[C@@H](CCCNC(=N)N)C(=O)N[C@H](C(=O)N[C@@H](CCC(=O)O)C(=O)N[C@@H](Cc1c[nH]c2ccccc12)C(=O)N[C@@H](CC(C)C)C(=O)N[C@@H](CCCNC(=N)N)C(=O)N[C@@H](CCCCN)C(=O)N[C@@H](CCCCN)C(=O)N[C@@H](CC(C)C)C(=O)N[C@@H](CCC(N)=O)C(=O)N[C@@H](CC(=O)O)C(=O)N[C@H](C(=O)N[C@@H](Cc1c[nH]cn1)C(=O)N[C@@H](CC(N)=O)C(=O)N[C@@H](Cc1ccccc1)C(N)=O)C(C)C)C(C)C [[Ser^11] hPTH (1-34)NH2, (Ser^11)hPTH(1-34)NH2] | – | Biological Activity (Represented by Relative Activity to hPTH(1-34)) (PTH receptor): 0.8
CC[C@H](C)[C@H](NC(=O)[C@H](CCC(=O)O)NC(=O)[C@H](CO)NC(=O)[C@@H](NC(=O)[C@@H](N)CO)C(C)C)C(=O)N[C@@H](CCC(N)=O)C(=O)N[C@@H](CC(C)C)C(=O)N[C@@H](CCSC)C(=O)N[C@@H](Cc1c[nH]cn1)C(=O)N[C@@H](CC(N)=O)C(=O)N[C@@H](CC(C)C)C(=O)NCC(=O)N[C@@H](CCCCN)C(=O)N[C@@H](Cc1c[nH]cn1)C(=O)N[C@@H](CC(C)C)C(=O)N[C@@H](CC(N)=O)C(=O)N[C@@H](CO)C(=O)N[C@@H](CCSC)C(=O)N[C@@H](CCC(=O)O)C(=O)N[C@@H](CCCNC(=N)N)C(=O)N[C@H](C(=O)N[C@@H](CCC(=O)O)C(=O)N[C@@H](Cc1c[nH]c2ccccc12)C(=O)N[C@@H](CC(C)C)C(=O)N[C@@H](CCCNC(=N)N)C(=O)N[C@@H](CCCCN)C(=O)N[C@@H](CCCCN)C(=O)N[C@@H](CC(C)C)C(=O)N[C@@H](CCC(N)=O)C(=O)N[C@@H](CC(=O)O)C(=O)N[C@H](C(=O)N[C@@H](Cc1c[nH]cn1)C(=O)N[C@@H](CC(N)=O)C(=O)N[C@@H](Cc1ccccc1)C(=O)O)C(C)C)C(C)C [hPTH (1-34), hPTH(1-34), reference compound] | – | Biological Activity (Represented by Relative Activity to hPTH(1-34)) (PTH receptor): 1.00; cAMP production of the standard (PTH receptor; human PTH (1-34) added as a standard, 0.01-100 nM): increase in cAMP production depending on the concentration
(3-(2-naphthyl)-D-Ala^12)hPTH(1-34)NH2 (from UniProt P01270) (peptide) | 0.9 | –
(Aib^1)hPTH(1-34) (from UniProt P01270) (peptide) | 1.7 | –
(Arg^19,21)hPTH(1-34)NH2 (from UniProt P01270) (peptide) | 0.9 | –
(Arg^19,21)hPTH(1-34)NH2 [[Arg^13, 21] hPTH (1-34)NH2] | – | Biological Activity (Represented by Relative Activity to hPTH(1-34)) (PTH receptor): 0.9
(Arg^19,21,2-(1,3-dithiolan-2-yl)-Trp^23)hPTH(1-34)NH2 (from UniProt P01270) (peptide) | 1.7 | –
(D-Leu^12)hPTH(1-34)NH2 (from UniProt P01270) (peptide) | 0.5 | –
(D-Ser^12)hPTH(1-34)NH2 (from UniProt P01270) (peptide) | 0.8 | –
(Gln^27)hPTH(1-34) (from UniProt P01270) (peptide) | 2.5 | –
(His^25)hPTH(1-34) (from UniProt P01270) (peptide) | 1 | –
(His^26)hPTH(1-34)NH2 (from UniProt P01270) (peptide) | 0.9 | –
(Leu^8, Phe^11,Leu^18)hPTH(1-34)NH2 (from UniProt P01270) (peptide) | 0.9 | –
(Phe^11)hPTH(1-34) (from UniProt P01270) (peptide) | 1.1 | –
(Phe^11)hPTH(1-34)NH2 (from UniProt P01270) (peptide) | 1.3 | –
SVSEIQLLHNFGKHLNSLERVEWLRKKLQDVHNF-NH2 [[Leu^8, Phe^11, Leu^18] hPTH (1-34)NH2, (Leu^8, Phe^11,Leu^18)hPTH(1-34)NH2] | – | Biological Activity (Represented by Relative Activity to hPTH(1-34)) (PTH receptor): 0.9

The next lines start with results.

cAMP production in MC3T3-EI cells, relative activity to hPTH(1-34) (relative activity to hPTH(1-34)) [1] | Molecule | also measured
1.7 | (3-(2-naphthyl)-Ala^11)hPTH(1-34)NH2 (from UniProt P01270) (peptide) | –
0.5 | (Leu^8)hPTH(1-34)NH2 (from UniProt P01270) (peptide) | –
0.4 | (Leu^18)hPTH(1-34) (from UniProt P01270) (peptide) | –
1.2 | (Leu^27)hPTH(1-34) (from UniProt P01270) (peptide) | –
1.1 | (Lys^11)hPTH(1-34)NH2 (from UniProt P01270) (peptide) | –
0.8 | (Ser^11)hPTH(1-34)NH2 (from UniProt P01270) (peptide) | –
